In patent US20140223591A1:

B1: SMI41 ascites IgG (antibody, V domains shown)
VH: QVTLKESGPGILRPSQTLDLTCSFSGFSLSTSGLSVGWIRQPSGKGLEWLAHIWWDDVKYFNPSLKSRLTISKDSSRNQVFLKITSVDTADSATYHCTRGPLGHGFDYWGQGTLVTVSA
VL: DVVMTQTPLSLPVSLGDQAFISCRSSQSLVHSDGNSYLHWYLQKPGQSPKLLIYKVSNRFSGVPDRFSGSGSGTDFTLKISRVEAEDLGLYFCSQTTHVPWTFGGGTKLEIK
B2: SMI41-HEK293T-IgG (antibody, V domains shown)
VH: B1 VH
VL: DVVMTQTPLSLPVSLGDQAFISCRSSQSLVHSDGNSYLHWYLQKPGQSPKLLIYKVSNRFSGVPDRFSGSGSGTDFTLKISRVEAEDLGLYFCSQTTHVPWTFGGGTKLEIKR
B3: HB-9094-HEK293T-IgG (antibody, V domains shown)
VH: QIQLVQSGPELKKPGETVKISCKASGYPFTNYGMNWVKQAPGKGLKWMGWINTYTGEPACADDFRGRFAISLETSARTAYLQINNLINEDTATYFCARTGGGRYNYGMDYWGQGTSVTVSS
VL: QIVLTQSPAIMSASPGEKVTITCSATSSVSYIHWFQQKPGTSPKLWIYSTSNLASGVPVRFSGSGSGTSYSLTISRMEAEDAATYYCQQRSSYPPTFGGGTKLEIKR

Columns and labels:
[1] = biological target: Gonadotrophin releasing hormone 1 (GnRH1) (UniProt P01148); test: SPR
[2] = biological target: Gonadotrophin releasing hormone 1 (GnRH1) (UniProt P01148); test: SPR, Biacore T200; antibody captured on goat anti-mouse IgG on a CM5 chip, GnRH injected in 2-fold dilutions from 1024 nM
[3] = biological target: Gonadotrophin releasing hormone 1 (GnRH1) (UniProt P01148); test: SPR (Biacore T200): antibody captured on goat anti-mouse IgG immobilized on a CM5 chip, GnRH injected in 2-fold dilutions from 1024 nM

| Binder | Kd [1] | koff [1] | kon [1] | Kd [2] | koff [2] | kon [2] | Kd [3] |
| --- | --- | --- | --- | --- | --- | --- | --- |
| B1 | 0.819 nM | 0.00467 s⁻¹ | 8.99e+06 M⁻¹ s⁻¹ |  |  |  |  |
| B2 | 0.592 nM | 0.00282 s⁻¹ | 4.76e+06 M⁻¹ s⁻¹ | 0.592 nM | 0.00282 s⁻¹ | 4.76e+06 M⁻¹ s⁻¹ |  |
| B3 | 0.918 nM | 0.000249 s⁻¹ | 272000 M⁻¹ s⁻¹ | 0.918 nM | 0.000249 s⁻¹ | 272000 M⁻¹ s⁻¹ | 0.27 nM |
